For test [1], the target named is KV10.1 voltage-gated potassium channel, full-length form (E100) (human) (UniProt O95259).
Test [2] shares this target. The source holds these as a separate data set.
For test [3] the target is unchanged. This is another data set of the same source.

UniProt O95259, sequence (O95259 whole entry): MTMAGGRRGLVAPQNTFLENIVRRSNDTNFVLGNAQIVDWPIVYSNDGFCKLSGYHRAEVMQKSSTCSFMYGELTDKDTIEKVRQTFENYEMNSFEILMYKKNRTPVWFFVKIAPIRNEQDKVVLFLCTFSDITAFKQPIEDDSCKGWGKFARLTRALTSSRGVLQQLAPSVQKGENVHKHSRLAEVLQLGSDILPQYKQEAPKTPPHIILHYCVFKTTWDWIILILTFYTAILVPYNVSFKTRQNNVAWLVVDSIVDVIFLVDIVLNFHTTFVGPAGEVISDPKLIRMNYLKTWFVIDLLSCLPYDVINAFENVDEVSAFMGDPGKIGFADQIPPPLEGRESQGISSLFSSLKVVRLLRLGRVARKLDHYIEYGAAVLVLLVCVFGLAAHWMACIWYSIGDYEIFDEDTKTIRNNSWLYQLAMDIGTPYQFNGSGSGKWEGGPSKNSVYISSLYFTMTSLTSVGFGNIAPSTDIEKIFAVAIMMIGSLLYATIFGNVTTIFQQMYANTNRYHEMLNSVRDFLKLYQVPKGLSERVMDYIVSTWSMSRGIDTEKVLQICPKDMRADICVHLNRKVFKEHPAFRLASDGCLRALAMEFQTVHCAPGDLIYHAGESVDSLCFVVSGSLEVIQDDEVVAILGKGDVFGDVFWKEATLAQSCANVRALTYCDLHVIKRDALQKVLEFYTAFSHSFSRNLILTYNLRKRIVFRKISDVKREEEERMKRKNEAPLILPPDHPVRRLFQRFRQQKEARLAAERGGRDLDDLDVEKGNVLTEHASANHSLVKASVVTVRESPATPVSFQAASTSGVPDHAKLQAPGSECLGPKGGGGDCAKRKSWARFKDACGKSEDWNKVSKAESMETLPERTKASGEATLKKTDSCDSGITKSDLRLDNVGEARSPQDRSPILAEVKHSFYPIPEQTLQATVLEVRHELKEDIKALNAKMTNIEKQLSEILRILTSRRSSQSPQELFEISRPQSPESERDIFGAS

In test [1], “E65^L405YmVenus (TCC-defective E65 fused to mVenus) (natural protein)” came in with a reduction of KV10.1 current amplitude, whole-cell patch clamp, HEK-KV10.1 cells transfected with E65^L405YmVenus (not statistically significant) of 20.8%.

“E65mVenus (KV10.1 splice variant E65 fused to mVenus) (natural protein)”: the reduction of KV10.1 current, two-electrode voltage clamp, Xenopus oocytes co-injected with E65 and KV10.1 cRNA at a 1:10 ratio (E65 from pSGEM, no mVenus) in test [2] was found to be 85%. Besides, the reduction of KV10.1 current, whole-cell patch clamp, HEK293 cells stably expressing KV10.1 and transfected with E65mVenus (control mVenus alone) in test [3] was 41.7%.

In test [1], “E70^L556YmVenus (TCC-defective E70 fused to mVenus) (natural protein)” yielded a reduction of KV10.1 current density at +80 mV, whole-cell patch clamp, HEK-KV10.1 cells transfected with E70^L556YmVenus of 45.3%.

Turning to “E70mVenus (KV10.1 splice variant E70 fused to mVenus) (natural protein)”, the reduction of KV10.1 current, two-electrode voltage clamp, Xenopus oocytes co-injected with E70 and KV10.1 cRNA at a 1:10 ratio (E70 from pSGEM, no mVenus) in test [2] came to 60%. The reduction of KV10.1 current, whole-cell patch clamp, HEK293 cells stably expressing KV10.1 and transfected with E70mVenus (control mVenus alone) in test [3] is 53.8%.

Values taken from PMC4683259.
